In paper PMC9493720:

Key:
[1] = target: human surfactant protein A (SP-A), native, supratrimeric (human) (UniProt Q8IWL2); assay: native gel or EMSA + other: electron microscopy + AUC; degree of oligomerization of isolated SP-A; electrophoresis under nondenaturing conditions, electron microscopy and analytical ultracentrifugation
[2] = target: recombinant trimeric fragment of human SP-A1 (rfhSP-A) (human); assay: other fluorescence titration; intrinsic tryptophan fluorescence of rfhSP-A, PMB added, 25°C, 5 mM Tris-HCl pH 7.4 without NaCl; apparent KD from the Hill equation
[3] = target: human surfactant protein A (SP-A), native, supratrimeric (human) (UniProt Q8IWL2); assay: other fluorescence titration; intrinsic tryptophan fluorescence of SP-A (15 nM) or rfhSP-A (0.3 μM), polymyxin added at increasing concentrations, 25°C, 5 mM Tris-HCl pH 7.4 with 150 mM NaCl; apparent KD from the Hill equation

Substance: human surfactant protein A (SP-A), native, supratrimeric (from UniProt Q8IWL2 21-248) (natural protein)
- stoichiometry N [1]: > 18

Substance: polymyxin B (PMB) (peptide)
- Kd [2]: 1370 nM
- Kd [3]: 320 nM

Substance: polymyxin B nonapeptide (PMBN)
- Kd [3]: 260 nM
